Literature values, collected in PMC4089558.
pKd: −log10 of the molar value.

Target: CFP10 (Mycobacterium tuberculosis) (UniProt P9WNK5)
Sequence (P9WNK5 2-100): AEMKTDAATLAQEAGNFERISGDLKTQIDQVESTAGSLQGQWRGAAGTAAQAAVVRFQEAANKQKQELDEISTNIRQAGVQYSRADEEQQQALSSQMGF

Chain of ESAT-6 (P9WNK7 2-95): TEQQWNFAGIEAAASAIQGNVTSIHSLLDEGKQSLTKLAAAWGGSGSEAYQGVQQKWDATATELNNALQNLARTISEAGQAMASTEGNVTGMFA

With ESAT-6 (from UniProt P9WNK7) as the substance, how does the pKd read?
The pKd was 7.96.
